{"source": "paper PMC3587310", "about": "(Biochemistry, 2013)", "proteins": {"B1": {"name": "S. elongatus KaiC A422V mutant protein (natural protein, Synechococcus elongatus, UniProt Q79PF4 1-519, looked up)", "chain": "MTSAEMTSPNNNSEHQAIAKMRTMIEGFDDISHGGLPIGRSTLVSGTSGTGKTLFSIQFLYNGIIEFDEPGVFVTFEETPQDIIKNARSFGWDLAKLVDEGKLFILDASPDPEGQEVVGGFDLSALIERINYAIQKYRARRVSIDSVTSVFQQYDASSVVRRELFRLVARLKQIGATTVMTTERIEEYGPIARYGVEEFVSDNVVILRNVLEGERRRRTLEILKLRGTSHMKGEYPFTITDHGINIFPLGAMRLTQRSSNVRVSSGVVRLDEMCGGGFFKDSIILATGATGTGKTLLVSRFVENACANKERAILFAYEESRAQLLRNAYSWGMDFEEMERQNLLKIVCAYPESAGLEDHLQIIKSEINDFKPARIAIDSLSALARGVSNNAFRQFVIGVTGYAKQEEITGLFTNTSDQFMGVHSITDSHISTITDTIILLQYVEIRGEMSRAINVFKMRGSWHDKAIREFMISDKGPDIKDSFRNFERIISGSPTRITVDEKSELSRIVRGVQEKGPES", "modifications": "phosphothreonine at T432 in all six subunits; S431 not phosphorylated"}}, "molecular_target": "the molecule itself", "assay": "crystal structure"}
{"protein": "B1", "values": [{"measurement": "stoichiometry N", "result": 6}]}
